Measured values taken from US20150037339A1 (Regeneron, published 2015).

T1: Activin AC (human, UniProt P55103 237-352)
T1 construct: Heterodimer of one betaA and one betaC subunit; bought (R&D Systems #4879-AC)
T1 sequence 1: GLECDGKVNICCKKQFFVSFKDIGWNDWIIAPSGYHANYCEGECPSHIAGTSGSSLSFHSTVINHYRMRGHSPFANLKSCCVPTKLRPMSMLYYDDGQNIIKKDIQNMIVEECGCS
T1 sequence 2: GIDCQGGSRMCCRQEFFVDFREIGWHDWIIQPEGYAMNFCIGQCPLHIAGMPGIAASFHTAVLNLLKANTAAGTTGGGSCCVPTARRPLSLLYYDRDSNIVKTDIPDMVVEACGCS

T2: Activin B (human, UniProt P09529 293-407)
T2 construct: Homodimer of two betaB subunits; bought (R&D Systems #659-AB)
T2 chain: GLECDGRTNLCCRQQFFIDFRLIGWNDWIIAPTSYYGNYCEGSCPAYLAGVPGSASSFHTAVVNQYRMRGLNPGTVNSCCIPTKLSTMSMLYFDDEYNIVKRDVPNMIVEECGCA

T3: hBMP9 (human, UniProt Q9UK05 320-429)
T3 construct: Bought protein
T3 sequence (looked up): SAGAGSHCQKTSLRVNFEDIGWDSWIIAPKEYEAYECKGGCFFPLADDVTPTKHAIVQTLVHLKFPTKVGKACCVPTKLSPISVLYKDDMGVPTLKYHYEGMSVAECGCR

T4: hBMP6 (human, UniProt P22004 382-513, limits assumed)
T4 construct: Bought protein
T4 sequence (looked up): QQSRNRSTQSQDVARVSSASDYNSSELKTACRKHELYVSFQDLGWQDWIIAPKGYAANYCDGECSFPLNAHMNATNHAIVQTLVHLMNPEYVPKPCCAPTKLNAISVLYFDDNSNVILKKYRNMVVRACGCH

T5: Activin A (human, UniProt P08476 311-426)
T5 construct: Homodimer of two betaA subunits; bought (R&D Systems #338-AC); also called inhibin-betaA dimer
T5 sequence: T1 sequence 1

T6: Activin AB (human, UniProt P08476 311-426; P09529 293-407)
T6 construct: Heterodimer of one betaA and one betaB subunit; bought (R&D Systems #1006-AB-005 / #1066-AB)
T6 chain 1: T1 sequence 1
T6 chain 2: T2 chain

T7: hBMP7 (human, UniProt P18075 293-431)
T7 construct: Bought protein
T7 sequence (looked up): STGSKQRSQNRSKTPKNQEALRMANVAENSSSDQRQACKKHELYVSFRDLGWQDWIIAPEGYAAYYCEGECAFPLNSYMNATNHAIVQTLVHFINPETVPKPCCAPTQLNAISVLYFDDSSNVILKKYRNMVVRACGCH

T8: hBMP10 (human, UniProt O95393 317-424)
T8 construct: Bought protein
T8 sequence (looked up): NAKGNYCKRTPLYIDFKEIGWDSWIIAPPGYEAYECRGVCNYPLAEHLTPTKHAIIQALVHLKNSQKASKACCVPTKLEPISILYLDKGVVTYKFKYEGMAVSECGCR

T9: hBMP4 (human, UniProt P12644 293-408)
T9 construct: Bought protein
T9 sequence (looked up): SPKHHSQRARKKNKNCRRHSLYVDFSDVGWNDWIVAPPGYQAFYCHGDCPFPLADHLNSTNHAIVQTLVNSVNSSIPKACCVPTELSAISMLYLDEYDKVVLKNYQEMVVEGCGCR

B1: H4H10442P2 (antibody, human IgG4, V domains shown)
VH: QVQLQESGPGLVKPSETLSITCTVSGGSFSSHFWTWIRQPPGKGLEWIGYLHYSGGTSYNPSLKSRVIISVDTSKNQFSLKLNSVTAADTAVYYCARARSGITFGGLIVPGSFDIWGQGTMVTVSS
VL: not shown
B2: H4H10446P2 (antibody, human IgG4, V domains shown)
VH: QVQLQESGPGLVKPSETLSLTCTVSGGSFSSHFWSWIRQPPGKGLEWIGYILYTGGTSFNPSLKSRVSMSVGTSKNQFSLKLSSVTAADTAVYYCARARSGITFTGIIVPGSFDIWGQGTMVTVSS
VL: not shown
B3: H4H10430P (antibody, human IgG4, V domains shown)
VH: EVQLVESGGGLVQPGRSLRLSCKASGFAFDDFAMHWVRQAPGKGLEWVSGIVWNSGDIGYADSVKGRFTISRDNAKNSLYLQLNSLRTEDTALYFCVKDMVRGLMGFNYYGMDVWGQGTTVTVSS
VL: EIVLTQSPATLSLSPGERATLSCRASQTISTYLVWYRQRPGQAPSLLIYDASNRATDIPARFSGSGSGTDFTLTISSLEPEDFAVYYCQQRSNWPITFGQGTRLEIK

Key:
Activin AC [1] = biological target: T1, Activin AC; experiment: SPR (Biacore), mAb captured on anti-Fc, Activin AC injected, 37 C
How it was run: (§1)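 240 s association, 600 s buffer dissociation; ka, kd fitted; KD (M) = kd/ka; t1/2 (min) = ln2/(60*kd).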

GDF11 = biological target: T10, GDF11 (human, UniProt O95390 299-407); experiment: SPR (Biacore 4000), captured on anti-human Fc, 200 nM ligand injected, 37 C
T10 construct: Bought protein; also called hGDF11
T10 sequence (O95390 299-407 limits assumed): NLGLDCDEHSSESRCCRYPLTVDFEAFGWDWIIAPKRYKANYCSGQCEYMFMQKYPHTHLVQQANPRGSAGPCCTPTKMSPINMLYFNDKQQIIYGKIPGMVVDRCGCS
Description: (§2) For the binding experiment, a Biacore 4000 instrument was used. […] All Biacore binding studies were performed in HBS-T running buffer (0.01 M HEPES pH 7.4, 0.5 M NaCl, 3 mM EDTA, 0.5 mg/ml bovine serum albumin, 0.05% v/v Surfactant P20). […] All binding measurements were performed at 37° C. […] Over the captured antibody surface was injected the TGF-beta family ligands through concentrations ranging from 3.1 nM to 200 nM.

Activin B = biological target: T2, Activin B; experiment: as above
Description: as §2

hBMP9 = biological target: T3, hBMP9; experiment: as above
Description: as §2

hBMP6 = biological target: T4, hBMP6; experiment: as above
Description: as §2

Activin A [2] = biological target: T5, Activin A; experiment: as above
Description: as §2

Activin AB [3] = biological target: T6, Activin AB; experiment: as above
Description: as §2

hBMP7 = biological target: T7, hBMP7; experiment: as above
Description: as §2

hBMP2 = biological target: T11, hBMP2 (human, UniProt P12643 283-396); experiment: as above
T11 construct: Bought protein; also called BPM2
T11 sequence (P12643 283-396 limits assumed): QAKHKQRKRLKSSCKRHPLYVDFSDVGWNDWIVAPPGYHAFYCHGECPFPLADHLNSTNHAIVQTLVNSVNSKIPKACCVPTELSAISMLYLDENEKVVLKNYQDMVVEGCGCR
Description: as §2

hBMP10 = biological target: T8, hBMP10; experiment: as above
Description: as §2

GDF8 = biological target: T12, GDF8 (human, UniProt O14793 267-375); experiment: as above
T12 construct: Bought (R&D Systems #788-G8); also called hGDF8; growth and differentiation factor-8
Description: as §2

hBMP4 = biological target: T9, hBMP4; experiment: as above
Description: as §2

Activin AC [4] = biological target: T1, Activin AC; experiment: as above
Description: as §2

Activin AB [5] = biological target: T6, Activin AB; experiment: SPR (Biacore), mAb captured on anti-Fc, Activin AB injected, 37 C
How it was run: as §1

Activin AB [6] = biological target: T6, Activin AB; experiment: SPR (Biacore), mAb captured on anti-Fc, Activin AB injected, 25 C
How it was run: as §1

Activin AC [7] = biological target: T1, Activin AC; experiment: SPR (Biacore), mAb captured on anti-Fc, Activin AC injected, 25 C
How it was run: as §1

Activin A [8] = biological target: T5, Activin A; experiment: cell-based or functional assay
Activin AB [9] = biological target: T6, Activin AB; experiment: cell-based or functional assay
Activin AC [10] = biological target: T1, Activin AC; experiment: cell-based or functional assay

Row | Binder | 50 nM Ag Bound (RU) (Activin AC [1]) | Kd (Activin AC [1]) [nM] | koff (Activin AC [1]) [s⁻¹] | kon (Activin AC [1]) [M⁻¹ s⁻¹] | t1/2 (Activin AC [1]) [min] | binding response (resonance units) for 200 nM ligand (GDF11) [RU] | binding response (resonance units) for 200 nM ligand (Activin B) [RU] | binding response (resonance units) for 200 nM ligand (hBMP9) [RU] | binding response (resonance units) for 200 nM ligand (hBMP6) [RU] | binding response (resonance units) for 200 nM ligand (Activin A [2]) [RU] | binding response (resonance units) for 200 nM ligand (Activin AB [3]) [RU] | binding response (resonance units) for 200 nM ligand (hBMP7) [RU] | binding response (resonance units) for 200 nM ligand (hBMP2) [RU] | binding response (resonance units) for 200 nM ligand (hBMP10) [RU] | binding response (resonance units) for 200 nM ligand (GDF8) [RU] | binding response (resonance units) for 200 nM ligand (hBMP4) [RU] | binding response (resonance units) for 200 nM ligand (Activin AC [4]) [RU] | 50 nM Ag Bound (RU) (Activin AB [5]) | Kd (Activin AB [5]) [nM] | koff (Activin AB [5]) [s⁻¹] | further results
1 | B1 | 21.4 | 4.1 | 0.00599 | 1.46e+06 | 1.9 | 1 | -1.8 | 0 | 1.1 | 63.9 | 65.2 | 1.5 | -2.3 | -0.7 | 0.5 | -0.7 | 14.2 | 45.9 | 0.464 | 0.00425 | kon (Activin AB [5]): 9.17e+06 M⁻¹ s⁻¹; t1/2 (Activin AB [5]): 2.7 min; 50 nM Ag Bound (RU) (Activin AB [6]): 34.6 RU; Kd (Activin AB [6]): 0.32 nM; koff (Activin AB [6]): 0.00177 s⁻¹; kon (Activin AB [6]): 5.53e+06 M⁻¹ s⁻¹; t1/2 (Activin AB [6]): 6.5 min; 50 nM Ag Bound (RU) (Activin AC [7]): 18.6 RU; Kd (Activin AC [7]): 1.57 nM; koff (Activin AC [7]): 0.00205 s⁻¹; kon (Activin AC [7]): 1.31e+06 M⁻¹ s⁻¹; t1/2 (Activin AC [7]): 5.6 min; IC50 [M], inhibition of 100 pM Activin A in A204/CAGAx12-Luc Smad2/3-luciferase bioassay (Activin A [8]): 5.6e-11 M; IC50 [M], inhibition of 30 pM Activin AB in A204/CAGAx12-Luc Smad2/3-luciferase bioassay (Activin AB [9]): 2.2e-09 M; IC50 [M], inhibition of 4 nM Activin AC in A204/CAGAx12-Luc Smad2/3-luciferase bioassay (Activin AC [10]): 6.5e-09 M
2 | B2 | 14.4 | 22.5 | 0.0216 | 959000 | 0.5 | 1.8 | 2.6 | -0.3 | 5.3 | 53.2 | 66.7 | 5.7 | 3.3 | 0.5 | 0.7 | 0.8 | 15.2 | 41.5 | 1.34 | 0.00817 | kon (Activin AB [5]): 6.08e+06 M⁻¹ s⁻¹; t1/2 (Activin AB [5]): 1.4 min; 50 nM Ag Bound (RU) (Activin AB [6]): 31.9 RU; Kd (Activin AB [6]): 0.815 nM; koff (Activin AB [6]): 0.00406 s⁻¹; kon (Activin AB [6]): 4.99e+06 M⁻¹ s⁻¹; t1/2 (Activin AB [6]): 2.8 min; 50 nM Ag Bound (RU) (Activin AC [7]): 12.6 RU; Kd (Activin AC [7]): 11.8 nM; koff (Activin AC [7]): 0.0122 s⁻¹; kon (Activin AC [7]): 1.04e+06 M⁻¹ s⁻¹; t1/2 (Activin AC [7]): 0.9 min; IC50 [M], inhibition of 100 pM Activin A in A204/CAGAx12-Luc Smad2/3-luciferase bioassay (Activin A [8]): 4.7e-11 M; IC50 [M], inhibition of 30 pM Activin AB in A204/CAGAx12-Luc Smad2/3-luciferase bioassay (Activin AB [9]): 8.2e-09 M; IC50 [M], inhibition of 4 nM Activin AC in A204/CAGAx12-Luc Smad2/3-luciferase bioassay (Activin AC [10]): 5.6e-09 M
3 | B3 | 25.3 | 16.7 | 0.02 | 1.2e+06 | 0.6 | 3 | 0.4 | -0.6 | 5.7 | 69.1 | 95 | 6.4 | -1.7 | 0.3 | -0.1 | -0.6 | 34.8 | 41 | 0.0535 | 0.000541 | kon (Activin AB [5]): 1.01e+07 M⁻¹ s⁻¹; t1/2 (Activin AB [5]): 21.3 min; 50 nM Ag Bound (RU) (Activin AB [6]): 33 RU; Kd (Activin AB [6]): 0.0185 nM; koff (Activin AB [6]): 0.000217 s⁻¹; kon (Activin AB [6]): 1.17e+07 M⁻¹ s⁻¹; t1/2 (Activin AB [6]): 53.3 min; 50 nM Ag Bound (RU) (Activin AC [7]): 23.6 RU; Kd (Activin AC [7]): 8.86 nM; koff (Activin AC [7]): 0.0109 s⁻¹; kon (Activin AC [7]): 1.23e+06 M⁻¹ s⁻¹; t1/2 (Activin AC [7]): 1.1 min; IC50 [M], inhibition of 100 pM Activin A in A204/CAGAx12-Luc Smad2/3-luciferase bioassay (Activin A [8]): 6.1e-11 M; IC50 [M], inhibition of 30 pM Activin AB in A204/CAGAx12-Luc Smad2/3-luciferase bioassay (Activin AB [9]): 1e-10 M; IC50 [M], inhibition of 4 nM Activin AC in A204/CAGAx12-Luc Smad2/3-luciferase bioassay (Activin AC [10]): 9.3e-10 M
